Assay results from the supplement of paper PMC5998384.

Tests used:
HeLa Kyoto [1] = experiment: solubility in G1/S (NP-40 vs SDS abundance) (log2 ratio); higher = more soluble; conditions: cell cycle stage: G1/S
HeLa Kyoto [2] = experiment: melting temperature (median over replicates), in situ; higher = more thermally stable
HeLa Kyoto [3] = experiment: solubility change mitosis vs G1/S (difference of NP-40 vs SDS log2 ratios) (log2 ratio difference); higher = more soluble in mitosis
HeLa Kyoto [4] = experiment: thermal stability score vs G1/S (z-score of summed log2 fold changes over temperatures); higher = more thermally stable than in G1/S
[5] = cell cycle stage: early G1 (4.5 h after nocodazole release)
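Wherever melting temperature (median over replicates), in situ is given: HeLa Kyoto cells synchronized by double thymidine or nocodazole block, proteins quantified by TMT10plex mass spectrometry, three independent biological replicates.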
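Wherever solubility change mitosis vs G1/S (difference of NP-40 vs SDS log2 ratios) is given: synchronized HeLa Kyoto cells (double thymidine block for G1/S, nocodazole release for mitosis), protein amounts in NP-40 versus SDS lysates quantified by mass spectrometry, three biological replicates.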
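Wherever solubility in G1/S (NP-40 vs SDS abundance) is given: HeLa Kyoto cells arrested at G1/S by double thymidine block, proteins quantified by TMT10plex mass spectrometry in mild NP-40 versus SDS extracts, three biological replicates.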
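Wherever thermal stability score vs G1/S (z-score of summed log2 fold changes over temperatures) is given: synchronized HeLa Kyoto cells, proteins quantified by TMT10plex mass spectrometry, three biological replicates, mitosis taken 0.5 h after nocodazole release, G1/S directly after double thymidine block.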

Sequence | solubility in G1/S (log2) (HeLa Kyoto [1]) | melting temperature (HeLa Kyoto [2]; cell cycle stage: G1/S) [°C] | melting temperature (HeLa Kyoto [2]; cell cycle stage: mitosis) [°C] | solubility change mitosis (log2) (HeLa Kyoto [3]) | thermal stability score (HeLa Kyoto [4]; [5]) | thermal stability score (HeLa Kyoto [4]; cell cycle stage: mitosis)
MVLLAAAVCTKAGKAIVSRQFVEMTRTRIEGLLAAFPKLMNTGKQHTFVETESVRYVYQPMEKLYMVLITTKNSNILEDLETLRLFSRVIPEYCRALEENEISEHCFDLIFAFDEIVALGYRENVNLAQIRTFTEMDSHEEKVFRAVRETQEREAKAEMRRKAKELQQARRDAERQGKKAPGFGGFGSSAVSGGSTAAMITETIIETDKPKVAPAPARPSGPSKALKLGAKGKEVDNFVDKLKSEGETIMSSSMGKRTSEATKMHAPPINMESVHMKIEEKITLTCGRDGGLQNMELHGMIMLRISDDKYGRIRLHVENEDKKGVQLQTHPNVDKKLFTAESLIGLKNPEKSFPVNSDVGVLKWRLQTTEESFIPLTINCWPSESGNGCDVNIEYELQEDNLELNDVVITIPLPSGVGAPVIGEIDGEYRHDSRRNTLEWCLPVIDAKNKSGSLEFSIAGQPNDFFPVQVSFVSKKNYCNIQVTKVTQVDGNSPVRFSTETTFLVDKYEIL [ARCN1] | -0.104 | 51.7 | 51.8 | -0.0987 | 1.07 | 0.0434
MVLLESEQFLTELTRLFQKCRTSGSVYITLKKYDGRTKPIPKKGTVEGFEPADNKCLLRATDGKKKISTVVSSKEVNKFQMAYSNLLRANMDGLKKRDKKNKTKKTKAAAAAAAAAPAAAATAPTTAATTAATAAQ [SRP14] | 0.1 | 53.6 | 52.6 | 0.409 | -2.96 | -4.66
MVLLRVLILLLSWAAGMGGQYGNPLNKYIRHYEGLSYNVDSLHQKHQRAKRAVSHEDQFLRLDFHAHGRHFNLRMKRDTSLFSDEFKVETSNKVLDYDTSHIYTGHIYGEEGSFSHGSVIDGRFEGFIQTRGGTFYVEPAERYIKDRTLPFHSVIYHEDDINYPHKYGPQGGCADHSVFERMRKYQMTGVEEVTQIPQEEHAANGPELLRKKRTTSAEKNTCQLYIQTDHLFFKYYGTREAVIAQISSHVKAIDTIYQTTDFSGIRNISFMVKRIRINTTADEKDPTNPFRFPNIGVEKFLELNSEQNHDDYCLAYVFTDRDFDDGVLGLAWVGAPSGSSGGICEKSKLYSDGKKKSLNTGIITVQNYGSHVPPKVSHITFAHEVGHNFGSPHDSGTECTPGESKNLGQKENGNYIMYARATSGDKLNNNKFSLCSIRNISQVLEKKRNNCFVESGQPICGNGMVEQGEECDCGYSDQCKDECCFDANQPEGRKCKLKPGKQCSPSQGPCCTAQCAFKSKSEKCRDDSDCAREGICNGFTALCPASDPKPNFTDCNRHTQVCINGQCAGSICEKYGLEECTCASSDGKDDKELCHVCCMKKMDPSTCASTGSVQWSRHFSGRTITLQPGSPCNDFRGYCDVFMRCRLVDADGPLARLKKAIFSPELYENIAEWIVAHWWAVLLMGIALIMLMAGFIKICSVHTPSSNPKLPPPKPLPGTLKRRRPPQPIQQPQRQRPRESYQMGHMRR [ADAM10] | -0.0721 | 53.3 | 53.9 | -0.0492 | 0.749 | 1.37
MVLLTMIARVADGLPLAASMQEDEQSGRDLQQYQSQAKQLFRKLNEQSPTRCTLEAGAMTFHYIIEQGVCYLVLCEAAFPKKLAFAYLEDLHSEFDEQHGKKVPTVSRPYSFIEFDTFIQKTKKLYIDSRARRNLGSINTELQDVQRIMVANIEEVLQRGEALSALDSKANNLSSLSKKYRQDAKYLNMRSTYAKLAAVAVFFIMLIVYVRFWWL [SEC22B] | -0.0184 | 51.3 | 52.2 | 0.0289 | 4.24 | 5.81
MVLWILWRPFGFSGRFLKLESHSITESKSLIPVAWTSLTQMLLEAPGIFLLGQRKRFSTMPETETHERETELFSPPSDVRGMTKLDRTAFKKTVNIPVLKVRKEIVSKLMRSLKRAALQRPGIRRVIEDPEDKESRLIMLDPYKIFTHDSFEKAELSVLEQLNVSPQISKYNLELTYEHFKSEEILRAVLPEGQDVTSGFSRIGHIAHLNLRDHQLPFKHLIGQVMIDKNPGITSAVNKINNIDNMYRNFQMEVLSGEQNMMTKVRENNYTYEFDFSKVYWNPRLSTEHSRITELLKPGDVLFDVFAGVGPFAIPVAKKNCTVFANDLNPESHKWLLYNCKLNKVDQKVKVFNLDGKDFLQGPVKEELMQLLGLSKERKPSVHVVMNLPAKAIEFLSAFKWLLDGQPCSSEFLPIVHCYSFSKDANPAEDVRQRAGAVLGISLEACSSVHLVRNVAPNKEMLCITFQIPASVLYKNQTRNPENHEDPPLKRQRTAEAFSDEKTQIVSNT [TRMT5] | 0.289 | 57.7 | 56.1 | -0.0856 | -0.613 | -0.00215
MVMAYFVENFWGEKNSGFDVLYHNMKHGQISTKELADFVRERATIEEAYSRSMTKLAKSASNYSQLGTFAPVWDVFKTSTEKLANCHLDLVRKLQELIKEVQKYGEEQVKSHKKTKEEVAGTLEAVQTIQSITQALQKSKENYNAKCVEQERLKKEGATQREIEKAAVKSKKATDTYKLYVEKYALAKADFEQKMTETAQKFQDIEETHLIHIKEIIGSLSNAIKEIHLQIGQVHEEFINNMANTTVESLIQKFAESKGTGKERPGLIEFEECDTASAVEGIKPRKRKTFALPGIIKKEKDAESVECPDADSLNIPDVDEEGYSIKPETNQNDTKENHFYSSSDSDSEDEEPKKYRIEIKPMHPNNSHHTMASLDELKVSIGNITLSPAISRHSPVQMNRNLSNEELTKSKPSAPPNEKGTSDLLAWDPLFGPSLDSSSSSSLTSSSSARPTTPLSVGTIVPPPRPASRPKLTSGKLSGINEIPRPFSPPVTSNTSPPPAAPLARAESSSSISSSASLSAANTPTVGVSRGPSPVSLGNQDTLPVAVALTESVNAYFKGADPTKCIVKITGDMTMSFPSGIIKVFTSNPTPAVLCFRVKNISRLEQILPNAQLVFSDPSQCDSNTKDFWMNMQAVTVYLKKLSEQNPAASYYNVDVLKYQVSSNGIQSTPLNLATYWKCSASTTDLRVDYKYNPEAMVAPSVLSNIQVVVPVDGGVTNMQSLPPAIWNAEQMKAFWKLSSISEKSENGGSGSLRAKFDLSEGPSKPTTLAVQFLSEGSTLSGVDFELVGTGYRLSLIKKRFATGRYLADC [FCHO2] | -0.0326 | 50.9 | 50.9 | 0.0613 | -0.516 | 0.0307
MVMKASVDDDDSGWELSMPEKMEKSNTNWVDITQDFEEACRELKLGELLHDKLFGLFEAMSAIEMMDPKMDAGMIGNQVNRKVLNFEQAIKDGTIKIKDLTLPELIGIMDTCFCCLITWLEGHSLAQTVFTCLYIHNPDFIEDPAMKAFALGILKICDIAREKVNKAAVFEEEDFQSMTYGFKMANSVTDLRVTGMLKDVEDDMQRRVKSTRSRQGEERDPEVELEHQQCLAVFSRVKFTRVLLTVLIAFTKKETSAVAEAQKLMVQAADLLSAIHNSLHHGIQAQNDTTKGDHPIMMGFEPLVNQRLLPPTFPRYAKIIKREEMVNYFARLIDRIKTVCEVVNLTNLHCILDFFCEFSEQSPCVLSRSLLQTTFLVDNKKVFGTHLMQDMVKDALRSFVSPPVLSPKCYLYNNHQAKDCIDSFVTHCVRPFCSLIQIHGHNRARQRDKLGHILEEFATLQDEAEKVDAALHTMLLKQEPQRQHLACLGTWVLYHNLRIMIQYLLSGFELELYSMHEYYYIYWYLSEFLYAWLMSTLSRADGSQMAEERIMEEQQKGRSSKKTKKKKKVRPLSREITMSQAYQNMCAGMFKTMVAFDMDGKVRKPKFELDSEQVRYEHRFAPFNSVMTPPPVHYLQFKEMSDLNKYSPPPQSPELYVAASKHFQQAKMILENIPNPDHEVNRILKVAKPNFVVMKLLAGGHKKESKVPPEFDFSAHKYFPVVKLV [NAA35] | -0.305 | 51.5 | 51 | -0.198 | 0.213 | 0.348
MVPSSPAVEKQVPVEPGPDPELRSWRHLVCYLCFYGFMAQIRPGESFITPYLLGPDKNFTREQVTNEITPVLSYSYLAVLVPVFLLTDYLRYTPVLLLQGLSFVSVWLLLLLGHSVAHMQLMELFYSVTMAARIAYSSYIFSLVRPARYQRVAGYSRAAVLLGVFTSSVLGQLLVTVGRVSFSTLNYISLAFLTFSVVLALFLKRPKRSLFFNRDDRGRCETSASELERMNPGPGGKLGHALRVACGDSVLARMLRELGDSLRRPQLRLWSLWWVFNSAGYYLVVYYVHILWNEVDPTTNSARVYNGAADAASTLLGAITSFAAGFVKIRWARWSKLLIAGVTATQAGLVFLLAHTRHPSSIWLCYAAFVLFRGSYQFLVPIATFQIASSLSKELCALVFGVNTFFATIVKTIITFIVSDVRGLGLPVRKQFQLYSVYFLILSIIYFLGAMLDGLRHCQRGHHPRQPPAQGLRSAAEEKAAQALSVQDKGLGGLQPAQSPPLSPEDSLGAVGPASLEQRQSDPYLAQAPAPQAAEFLSPVTTPSPCTLCSAQASGPEAADETCPQLAVHPPGVSKLGLQCLPSDGVQNVNQ [SLC19A1] | 0.075 | 57 | 54.9 | -0.0504 | -3.67 | -3.7
MVQKESQATLEERESELSSNPAASAGASLEPPAAPAPGEDNPAGAGGAAVAGAAGGARRFLCGVVEGFYGRPWVMEQRKELFRRLQKWELNTYLYAPKDDYKHRMFWREMYSVEEAEQLMTLISAAREYEIEFIYAISPGLDITFSNPKEVSTLKRKLDQVSQFGCRSFALLFDDIDHNMCAADKEVFSSFAHAQVSITNEIYQYLGEPETFLFCPTEYCGTFCYPNVSQSPYLRTVGEKLLPGIEVLWTGPKVVSKEIPVESIEEVSKIIKRAPVIWDNIHANDYDQKRLFLGPYKGRSTELIPRLKGVLTNPNCEFEANYVAIHTLATWYKSNMNGVRKDVVMTDSEDSTVSIQIKLENEGSDEDIETDVLYSPQMALKLALTEWLQEFGVPHQYSSRQVAHSGAKASVVDGTPLVAAPSLNATTVVTTVYQEPIMSQGAALSGEPTTLTKEEEKKQPDEEPMDMVVEKQEETDHKNDNQILSEIVEAKMAEELKPMDTDKESIAESKSPEMSMQEDCISDIAPMQTDEQTNKEQFVPGPNEKPLYTAEPVTLEDLQLLADLFYLPYEHGPKGAQMLREFQWLRANSSVVSVNCKGKDSEKIEEWRSRAAKFEEMCGLVMGMFTRLSNCANRTILYDMYSYVWDIKSIMSMVKSFVQWLGCRSHSSAQFLIGDQEPWAFRGGLAGEFQRLLPIDGANDLFFQPPPLTPTSKVYTIRPYFPKDEASVYKICREMYDDGVGLPFQSQPDLIGDKLVGGLLSLSLDYCFVLEDEDGICGYALGTVDVTPFIKKCKISWIPFMQEKYTKPNGDKELSEAEKIMLSFHEEQEVLPETFLANFPSLIKMDIHKKVTDPSVAKSMMACLLSSLKANGSRGAFCEVRPDDKRILEFYSKLGCFEIAKMEGFPKDVVILGRSL [MGEA5] | -0.0358 | 52.8 | 52.4 | -0.112 | -1.09 | -0.671
MVRGRISRLSVRDVRFPTSLGGHGADAMHTDPDYSAAYVVIETDAEDGIKGCGITFTLGKGTEVVVCAVNALAHHVLNKDLKDIVGDFRGFYRQLTSDGQLRWIGPEKGVVHLATAAVLNAVWDLWAKQEGKPVWKLLVDMDPRMLVSCIDFRYITDVLTEEDALEILQKGQIGKKEREKQMLAQGYPAYTTSCAWLGYSDDTLKQLCAQALKDGWTRFKVKVGADLQDDMRRCQIIRDMIGPEKTLMMDANQRWDVPEAVEWMSKLAKFKPLWIEEPTSPDDILGHATISKALVPLGIGIATGEQCHNRVIFKQLLQAKALQFLQIDSCRLGSVNENLSVLLMAKKFEIPVCPHAGGVGLCELVQHLIIFDYISVSASLENRVCEYVDHLHEHFKYPVMIQRASYMPPKDPGYSTEMKEESVKKHQYPDGEVWKKLLPAQEN [ENOSF1] | 0.0883 | 54.7 | 55.1 | -0.108 | -0.19 | -1.12
